# According to paper PMC9179584 (2022):
# B1: SMAD3 wild type, overexpressed from pCMV5b-SMAD3 [not stated] / SMAD Anchor for Receptor Activation (SARA) [human (endogenous in HT-1080)] (parent complex)
# chain 1: MSSILPFTPPIVKRLLGWKKGEQNGQEEKWCEKAVKSLVKKLKKTGQLDELEKAITTQNVNTKCITIPRSLDGRLQVSHRKGLPHVIYCRLWRWPDLHSHHELRAMELCEFAFNMKKDEVCVNPYHYQRVETPVLPPVLVPRHTEIPAEFPPLDDYSHSIPENTNFPAGIEPQSNIPETPPPGYLSEDGETSDHQMNHSMDAGSPNLSPNPMSPAHNNLDLQPVTYCEPAFWCSISYYELNQRVGETFHASQPSMTVDGFTDPSNSERFCLGLLSNVNRNAAVELTRRHIGRGVRLYYIGGEVFAECLSDSAIFVQSPNCNQRYGWHPATVCKIPPGCNLKIFNNQEFAALLAQSVNQGFEAVYQLTRMCTIRMSFVKGWGAEYRRQTVTSTPCWIELHLNGPLQWLDKVLTQMGSPSIRCSSVS
# chain 2: MENYFQAEAYNLDKVLDEFEQNEDETVSSTLLDTKWNKILDPPSHRLSFNPTLASVNESAVSNESQPQLKVFSLAHSAPLTTEEEDHCANGQDCNLNPEIATMWIDENAVAEDQLIKRNYSWDDQCSAVEVGEKKCGNLACLPDEKNVLVVAVMHNCDKRTLQNDLQDCNNYNSQSLMDAFSCSLDNENRQTDQFSFSINESTEKDMNSEKQMDPLNRPKTEGRSVNHLCPTSSDSLASVCSPSQLKDDGSIGRDPSMSAITSLTVDSVISSQGTDGCPAVKKQENYIPDEDLTGKISSPRTDLGSPNSFSHMSEGILMKKEPAEESTTEESLRSGLPLLLKPDMPNGSGRNNDCERCSDCLVPNEVRADENEGYEHEETLGTTEFLNMTEHFSESQDMTNWKLTKLNEMNDSQVNEEKEKFLQISQPEDTNGDSGGQCVGLADAGLDLKGTCISESEECDFSTVIDTPAANYLSNGCDSYGMQDPGVSFVPKTLPSKEDSVTEEKEIEESKSECYSNIYEQRGNEATEGSGLLLNSTGDLMKKNYLHNFCSQVPSVLGQSSPKVVASLPSISVPFGGARPKQPSNLKLQIPKPLSDHLQNDFPANSGNNTKNKNDILGKAKLGENSATNVCSPSLGNISNVDTNGEHLESYEAEISTRPCLALAPDSPDNDLRAGQFGISARKPFTTLGEVAPVWVPDSQAPNCMKCEARFTFTKRRHHCRACGKVFCASCCSLKCKLLYMDRKEARVCVICHSVLMNAQAWENMMSASSQSPNPNNPAEYCSTIPPLQQAQASGALSSPPPTVMVPVGVLKHPGAEVAQPREQRRVWFADGILPNGEVADAAKLTMNGTSSAGTLAVSHDPVKPVTTSPLPAETDICLFSGSITQVGSPVGSAMNLIPEDGLPPILISTGVKGDYAVEEKPSQISVMQQLEDGGPDPLVFVLNANLLSMVKIVNYVNRKCWCFTTKGMHAVGQSEIVILLQCLPDEKCLPKDIFNHFVQLYRDALAGNVVSNLGHSFFSQSFLGSKEHGGFLYVTSTYQSLQDLVLPTPPYLFGILIQKWETPWAKVFPIRLMLRLGAEYRLYPCPLFSVRFRKPLFGETGHTIMNLLADFRNYQYTLPVVQGLVVDMEVRKTSIKIPSNRYNEMMKAMNKSNEHVLAGGACFNEKADSHLVCVQNDDGNYQTQAISIHNQPRKVTGASFFVFSGALKSSSGYLAKSSIVEDGVMVQITAENMDSLRQALREMKDFTITCGKADAEEPQEHIHIQWVDDDKNVSKGVVSPIDGKSMETITNVKIFHGSEYKANGKVIRWTEVFFLENDDQHNCLSDPADHSRLTEHVAKAFCLALCPHLKLLKEDGMTKLGLRVTLDSDQVGYQAGSNGQPLPSQYMNDLDSALVPVIHGGACQLSEGPVVMELIFYILENIV
# B2: SMAD2 wild type, overexpressed from pCMV5b-SMAD2 [not stated] / SMAD Anchor for Receptor Activation (SARA) [human (endogenous in HT-1080)] (parent complex)
# chain 1: MSSILPFTPPVVKRLLGWKKSAGGSGGAGGGEQNGQEEKWCEKAVKSLVKKLKKTGRLDELEKAITTQNCNTKCVTIPSTCSEIWGLSTPNTIDQWDTTGLYSFSEQTRSLDGRLQVSHRKGLPHVIYCRLWRWPDLHSHHELKAIENCEYAFNLKKDEVCVNPYHYQRVETPVLPPVLVPRHTEILTELPPLDDYTHSIPENTNFPAGIEPQSNYIPETPPPGYISEDGETSDQQLNQSMDTGSPAELSPTTLSPVNHSLDLQPVTYSEPAFWCSIAYYELNQRVGETFHASQPSLTVDGFTDPSNSERFCLGLLSNVNRNATVEMTRRHIGRGVRLYYIGGEVFAECLSDSAIFVQSPNCNQRYGWHPATVCKIPPGCNLKIFNNQEFAALLAQSVNQGFEAVYQLTRMCTIRMSFVKGWGAEYRRQTVTSTPCWIELHLNGPLQWLDKVLTQMGSPSVRCSSMS
# chain 2: B1 chain 2
# Variants of: B1
# Assay: co-immunoprecipitation (IP: SMAD3, blot SARA) with densitometry; HT-1080 cells transiently transfected; ratio printed relative to the pCMV5b empty-vector lane = 1; parent: 0.6
row,Variant,screen value
1,chain 1 N339S,0.2

# Variants of: B2
# Assay: co-immunoprecipitation (IP: SMAD2, blot SARA) with densitometry; HT-1080 cells transiently transfected; ratio printed relative to the pCMV5b empty-vector lane = 1; parent: 1.2
row,Variant,screen value
1,chain 1 N381S,0.5
